We go through 8 molecules from patent US20190070248A1 (BIONTECH, published 2019).

Sequences and labels used below:
B1: aCD3 C7C-4 (ACTRPGDPQC-GGGS-K(Bio)) (peptide)
peptide: ACTRPGDPQCGGGSK(Biotin)
modifications: disulfide 2-10 (inferred)
notes: On the microarrays the peptide was immobilized covalently through a reactive moiety, not through K(Bio); also called clone 4; parental peptide

Positions of bridges follow the written chain, without caps; N, C: chain ends. No end group written: not given here. *: point of attachment. Biotin = O=C1N[C@H]2[C@H](CS[C@H]2CCCCC(=O)*)N1

The first test deals with T1, TR66 antibody (CD3ε specific antibody, clone TR66).
T1 construct: Whole antibody
Briefly: apparent KD, peptide ELISA, biotinylated peptide on streptavidin plate, TR66 titrated, two-site saturation fit. (In general: ELISA stands for enzyme-linked immunosorbent assay.)
As for B1, the Kd came out at 370 nM.

With ACTRPGDPACGGGSK(Biotin) (disulfide 2-10 (inferred)) [aCD3-04-008 (ACTRPGDPAC-GGGS-K(Bio))], the Kd was determined as 164 nM.

For the molecule ACTRPDDPQCGGGSK(Biotin) (disulfide 2-10 (inferred)) [aCD3-04-002 (ACTRPDDPQC-GGGS-K(Bio))], the Kd worked out at 78 nM.

ACTRPDDPWCGGGSK(Biotin) (disulfide 2-10 (inferred)) [aCD3-04-014 (ACTRPDDPWC-GGGS-K(Bio))]: the Kd stood at 111 nM.

With ACTRPGDPYCGGGSK(Biotin) (disulfide 2-10 (inferred)) [aCD3-04-009 (ACTRPGDPYC-GGGS-K(Bio))], the Kd was determined as 167 nM.

Take ACTRPEDPQCGGGSK(Biotin) (disulfide 2-10 (inferred)) [aCD3-04-007 (ACTRPEDPQC-GGGS-K(Bio))]: the Kd amounted to 299 nM.

On to WCTRPGDPQCGGGSK(Biotin) (disulfide 2-10 (inferred)) [aCD3-04-006 (WCTRPGDPQC-GGGS-K(Bio))], for which the Kd worked out at 226 nM.

Regarding ACTRPDDPECGGGSK(Biotin) (disulfide 2-10 (inferred), also called TR66 mimotope aCD3-04-013) [aCD3-04-013 (ACTRPDDPEC-GGGS-K(Bio))], the Kd was found to be 4 nM.

The target in a further test is T1, TR66 antibody (CD3ε specific antibody, …). Briefly: peptide ELISA, apparent KD against the parental peptide.
Consider ACTRPDDPQCGGGSK(Biotin) (disulfide 2-10 (inferred)) [aCD3-04-002 (ACTRPDDPQC-GGGS-K(Bio))], for which the “fold lower apparent KD than the parental peptide aCD3 C7C-4” value was roughly 5 fold.

For the molecule ACTRPDDPECGGGSK(Biotin) (disulfide 2-10 (inferred), also called TR66 mimotope aCD3-04-013) [aCD3-04-013 (ACTRPDDPEC-GGGS-K(Bio))], the “fold lower apparent KD than the parental peptide aCD3 C7C-4” value is roughly 100 fold.
